From publication PMC7954794, “Protein context shapes the specificity of SH3 domain-mediated interactions in vivo” (Nature Communications, 2021)

Test system: PPIs identified as affected by the SH3 domain deletions
Assay: Liquid DHFR-PCA low-throughput validation of PPIs affected by SH3 deletion (Fig. S1D-E)
Assay type: cell-based, Saccharomyces cerevisiae
Settings: label = prey, liquid DHFR-PCA, prey _1 = lost, _2 = gained in screen
Procedure, shortened: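 Yeast diploids from DHFR-PCA mating grown 48 h in synthetic complete MSG medium pH 6.0 with NAT and HPH, normalized to 1 OD and diluted to 0.1 OD in liquid PCA selection medium. Growth followed by OD every 15 min for 72 h at 30 °C.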

Molecule | Ratio (Deletedscore / WTscore) (bait BBC1) | Ratio (Deletedscore / WTscore) (bait BEM1-1) | Ratio (Deletedscore / WTscore) (bait BEM1-2) | Ratio (Deletedscore / WTscore) (bait PIN3) | Ratio (Deletedscore / WTscore) (bait MYO3) | further results
YLR196W_1 (protein, UniProt P21304 1-576, looked up) Periodic tryptophan protein 1: MISATNWVPRGFSSEFPEKYVLDDEEVERINQLAQLNLDDAKATLEEAEGESGVEDDAATGSSNKLKDQLDIDDDLKEYNLEEYDDEEIADNEGGKDVSMFPGLSNDSDVKFHEGEKGEDPYISLPNQEDSQEEKQELQVYPSDNLVLAARTEDDVSYLDIYVYDDGAGFHSSDIPVEEGDEADPDVARGLVRDPALYVHHDLMLPAFPLCVEWLDYKVGSNSEEAANYAAIGTFDPQIEIWNLDCVDKAFPDMILGEPLDNSMVSLKSKKKKKKSKTGHITTHHTDAVLSMAHNKYFRSVLASTSADHTVKLWDLNSGNAARSLASIHSNKNVSSSEWHMLNGSILLTGGYDSRVALTDVRISDESQMSKYWSAMAGEEIETVTFASENIILCGTDSGNVYSFDIRNNENRKPVWTLKAHDAGISTLCSNKFIPGMMSTGAMGEKTVKLWKFPLDDATNTKGPSMVLSRDFDVGNVLTSSFAPDIEVAGTMVIGGVNKVLKLWDVFTNRSVRKSFKSELENVQARAKEEAQKIGKSSRIARKYTSNDNPDTVITIDDQGEDEEEREGGDEHDDMA | 1.08 | – | – | – | – | –
YBR102C_1 (protein, UniProt P38261 1-753, looked up) Exocyst complex component …: MVEFSLKKARNNWKHVKKSASSPAKQKTPPSPAKPKQKTKKNPYSDLKDPATSYTLPTINARERSRVATSMQRRLSIHNTNYAPPTLDYSMPLPDMPNMIVPNDNVDSSHNNSSFTTENESVSSKGPSNSLNLSTADLSLNDSSYNKVPARSAMRNTVNPSGSNDPFNNSTSLRKMLANPHFNAKDFVHDKLGNASAITIDKFTSNLTDLSIQVQEEVKLNINKSYNEIMTVNNDLNVAMLELKRVRANINDLNEVLDQCTKIAEKRLQLQDQIDQERQGNFNNVESHSNSPALLPPLKAGQNGNLMRRDRSSVLILEKFWDTELDQLFKNVEGAQKFINSTKGRHILMNSANWMELNTTTGKPLQMVQIFILNDLVLIADKSRDKQNDFIVSQCYPLKDVTVTQEEFSTKRLLFKFSNSNSSLYECRDADECSRLLDVIRKAKDDLCDIFHVEEENSKRIRESFRYLQSTQQTPGRENNRSPNKNKRRSMGGSITPGRNVTGAMDQYLLQNLTLSMHSRPRSRDMSSTAQRLKFLDEGVEEIDIELARLRFESAVETLLDIESQLEDLSERISDEELMLLNLISLKIEQRREAISSKLSQSILSSNEIVHLKSGTENMIKLGLPEQALDLFLQNRSNFIQDLILQIGSVDNPTNYLTQLAVIRFQTIKKTVEDFQDIFKELGAKISSILVDWCSDEVDNHFKLIDKQLLNDEMLSPGSIKSSRKQIDGLKAVGLDFVYKLDEFIKKNSDKIR | – | 0.5987 | 0.6932 | – | – | Ratio (Deletedscore / WTscore) (bait RVS167): 0.8234
YOR042W_1 (protein, UniProt Q08412 1-411, looked up) Ubiquitin-binding protein CUE5: MEEKEGIKDSSLLEKSNVPESINEDISKTTDVDLNSDGKKDNDTSAKDGTPKVEEKVNKSSGIDEDEVVTPAEDAKEEEEEHPPLPARRKSEEEPSKENPILQELKDAFPNLEEKYIKAVIIASQGVLSPAFNALLFLSDPESGKDIELPTQPVRKNPEAPARRRQTQLEQDELLARQLDEQFNSSHSRRRNRDRATRSMHEQRRRRHNPNEREQHHEDSEEEDSWSQFVEKDLPELTDRAGRSLQDTANKVSNWISDAYRRNFASGNEQNDNQHGHQDQQEWEPEIVDLSQGGKNSRPQQPERRRFNSFGVQVGDDSLESHGITLHNEDGFEDDEDVPPQLPTRTKSGESTGKVVAETTYIDTPDTETKKKWQPLPPEPLDTTPTKVNAVSRNKKNPDEDEFLINSDDEM | 0.4675 | – | – | 0.5809 | – | –
YML016C_1 (protein, UniProt P26570 2-692, looked up) Serine/threonine-protein …: GNSSSKSSKKDSHSNSSSRNPRPQVSRTETSHSVKSAKSNKSSRSRRSLPSSSTTNTNSNVPDPSTPSKPNLEVNHQRHSSHTNRYHFPSSSHSHSNSQNELLTTPSSSSTKRPSTSRRSSYNTKAAADLPPSMIQMEPKSPILKTNNSSTHVSKHKSSYSSTYYENALTDDDNDDKDNDISHTKRFSRSSNSRPSSIRSGSVSRRKSDVTHEEPNNGSYSSNNQENYLVQALTRSNSHASSLHSRKSSFGSDGNTAYSTPLNSPGLSKLTDHSGEYFTSNSTSSLNHHSSRDIYPSKHISNDDDIENSSQLSNIHASMENVNDKNNNITDSKKDPNEEFNDIMQSSGNKNAPKKFKKPIDIDETIQKLLDAGYAAKRTKNVCLKNNEILQICIKAREIFLSQPSLLELSPPVKIVGDVHGQYGDLLRLFTKCGFPPSSNYLFLGDYVDRGKQSLETILLLFCYKIKYPENFFLLRGNHECANVTRVYGFYDECKRRCNIKIWKTFIDTFNTLPLAAIVAGKIFCVHGGLSPVLNSMDEIRHVVRPTDVPDFGLINDLLWSDPTDSPNEWEDNERGVSYCYNKVAINKFLNKFGFDLVCRAHMVVEDGYEFFNDRSLVTVFSAPNYCGEFDNWGAVMSVSEGLLCSFELLDPLDSAALKQVMKKGRQERKLANQQQQMMETSITNDNESQQ | 0.8012 | – | 0.6049 | – | 0.8355 | –
YNL243W_1 (protein, UniProt P33338 1-968, looked up) Protein SLA2: MSRIDSDLQKALKKACSVEETAPKRKHVRACIVYTWDHQSSKAVFTTLKTLPLANDEVQLFKMLIVLHKIIQEGHPSALAEAIRDRDWIRSLGRVHSGGSSYSKLIREYVRYLVLKLDFHAHHRGFNNGTFEYEEYVSLVSVSDPDEGYETILDLMSLQDSLDEFSQIIFASIQSERRNTECKISALIPLIAESYGIYKFITSMLRAMHRQLNDAEGDAALQPLKERYELQHARLFEFYADCSSVKYLTTLVTIPKLPVDAPDVFLINDVDESKEIKFKKREPSVTPARTPARTPTPTPPVVAEPAISPRPVSQRTTSTPTGYLQTMPTGATTGMMIPTATGAANAIFPQATAQMQPDFWANQQAQFANEQNRLEQERVQQLQQQQAQQELFQQQLQKAQQDMMNMQLQQQNQHQNDLIALTNQYEKDQALLQQYDQRVQQLESEITTMDSTASKQLANKDEQLTALQDQLDVWERKYESLAKLYSQLRQEHLNLLPRFKKLQLKVNSAQESIQKKEQLEHKLKQKDLQMAELVKDRDRARLELERSINNAEADSAAATAAAETMTQDKMNPILDAILESGINTIQESVYNLDSPLSWSGPLTPPTFLLSLLESTSENATEFATSFNNLIVDGLAHGDQTEVIHCVSDFSTSMATLVTNSKAYAVTTLPQEQSDQILTLVKRCAREAQYFFEDLMSENLNQVGDEEKTDIVINANVDMQEKLQELSLAIEPLLNIQSVKSNKETNPHSELVATADKIVKSSEHLRVDVPKPLLSLALMIIDAVVALVKAAIQCQNEIATTTSIPLNQFYLKNSRWTEGLISAAKAVAGATNVLITTASKLITSEDNENTSPEQFIVASKEVAASTIQLVAASRVKTSIHSKAQDKLEHCSKDVTDACRSLGNHVMGMIEDDHSTSQQQQPLDFTSEHTLKTAEMEQQVEILKLEQSLSNARKRLGEIRRHAYYNQDDD | 0.664 | 1.137 | 0.8469 | 1.05 | 0.5927 | Ratio (Deletedscore / WTscore) (bait BZZ1-1): 0.856; Ratio (Deletedscore / WTscore) (bait HOF1): 0.8741; Ratio (Deletedscore / WTscore) (bait MYO5): 0.7315
YLR337C_1 (protein, UniProt P37370 1-817, looked up) Verprolin: MAGAPAPPPPPPPPALGGSAPKPAKSVMQGRDALLGDIRKGMKLKKAETNDRSAPIVGGGVVSSASGSSGTVSSKGPSMSAPPIPGMGAPQLGDILAGGIPKLKHINNNASTKPSPSASAPPIPGAVPSVAAPPIPNAPLSPAPAVPSIPSSSAPPIPDIPSSAAPPIPIVPSSPAPPLPLSGASAPKVPQNRPHMPSVRPAHRSHQRKSSNISLPSVSAPPLPSASLPTHVSNPPQAPPPPPTPTIGLDSKNIKPTDNAVSPPSSEVPAGGLPFLAEINARRSERGAVEGVSSTKIQTENHKSPSQPPLPSSAPPIPTSHAPPLPPTAPPPPSLPNVTSAPKKATSAPAPPPPPLPAAMSSASTNSVKATPVPPTLAPPLPNTTSVPPNKASSMPAPPPPPPPPPGAFSTSSALSASSIPLAPLPPPPPPSVATSVPSAPPPPPTLTTNKPSASSKQSKISSSSSSSAVTPGGPLPFLAEIQKKRDDRFVVGGDTGYTTQDKQEDVIGSSKDDNVRPSPISPSINPPKQSSQNGMSFLDEIESKLHKQTSSNAFNAPPPHTDAMAPPLPPSAPPPPITSLPTPTASGDDHTNDKSETVLGMKKAKAPALPGHVPPPPVPPVLSDDSKNNVPAASLLHDVLPSSNLEKPPSPPVAAAPPLPTFSAPSLPQQSVSTSIPSPPPVAPTLSVRTETESISKNPTKSPPPPPSPSTMDTGTSNSPSKNLKQRLFSTGGSTLQHKHNTHTNQPDVDVGRYTIGGSNSIVGAKSGNERIVIDDSRFKWTNVSQMPKPRPFQNKTKLYPSGKGSSVPLDLTLFT | 0.3637 | – | – | 0.5606 | 0.5955 | Ratio (Deletedscore / WTscore) (bait LSB1): 0.5725; Ratio (Deletedscore / WTscore) (bait LSB3): 0.8547
